Measurements taken from patent US20190112393 (published 2019).
Like-named read-outs stand apart in the source and are kept apart here. Blank lines part the entries; values can stand above or below the binder they belong to.

Legend:
human IgA [1] = target: human IgA (human); experiment: SPR, pH 5.8, 3 uM Ca, 37C
human IgA [2] = target: human IgA (human); experiment: SPR, pH 7.4, 3 uM Ca, 37C
human IgA [3] = target: human IgA (human); experiment: SPR, pH 5.8, 1.2 mM Ca, 37C
human IgA [4] = target: human IgA (human); experiment: SPR, pH 7.4, 1.2 mM Ca, 37C
human FcγRIIa type H = target: T1, human FcγRIIa type H (human, UniProt P12318); experiment: SPR
T1 chain: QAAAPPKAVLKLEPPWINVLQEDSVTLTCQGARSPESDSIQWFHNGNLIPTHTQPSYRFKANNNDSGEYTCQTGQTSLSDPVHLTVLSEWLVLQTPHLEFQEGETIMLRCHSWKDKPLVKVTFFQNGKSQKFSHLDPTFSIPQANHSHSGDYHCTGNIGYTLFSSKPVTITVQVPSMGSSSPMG

human FcγRIIb = target: T2, human FcγRIIb (human, UniProt P31994); experiment: SPR
T2 chain: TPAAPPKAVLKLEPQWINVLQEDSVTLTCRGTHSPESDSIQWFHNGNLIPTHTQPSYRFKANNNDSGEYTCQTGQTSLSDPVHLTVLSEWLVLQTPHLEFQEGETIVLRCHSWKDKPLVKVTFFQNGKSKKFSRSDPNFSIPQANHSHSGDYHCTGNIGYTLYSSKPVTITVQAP

human FcγRIa [5] = target: T3, human FcγRIa (human, UniProt P12314); experiment: SPR
T3 chain: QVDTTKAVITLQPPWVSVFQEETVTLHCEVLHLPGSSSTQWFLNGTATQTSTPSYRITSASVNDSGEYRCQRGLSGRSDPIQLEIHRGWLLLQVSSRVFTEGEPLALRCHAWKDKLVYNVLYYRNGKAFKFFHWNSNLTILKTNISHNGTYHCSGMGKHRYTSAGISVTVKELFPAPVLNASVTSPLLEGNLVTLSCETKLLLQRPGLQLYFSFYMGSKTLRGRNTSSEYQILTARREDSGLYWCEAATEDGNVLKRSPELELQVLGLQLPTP

human FcγRIa [6] = target: T3, human FcγRIa; experiment: SPR
human IgE [7] = target: human IgE (human); experiment: SPR, pH 5.8, 3 uM Ca, 37C
human IgE [8] = target: human IgE (human); experiment: SPR, pH 5.8, 1.2 mM Ca, 37C
human IgE [9] = target: human IgE (human); experiment: SPR, pH 7.4, 1.2 mM Ca, 37C

Chain of human IgA (human) (VH, as listed by the source): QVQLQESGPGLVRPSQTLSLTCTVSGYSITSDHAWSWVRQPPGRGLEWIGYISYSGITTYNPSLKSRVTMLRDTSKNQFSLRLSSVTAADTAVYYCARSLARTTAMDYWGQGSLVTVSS

B4: BP267 (antibody)
chain 1: QVQLQESGPGLVKPSETLSLTCAVSGHSISHDHAWSWVRQPPGEGLEWIGFISYSGITNYNPSLQGRVTISRDNSKNTLYLQMNSLRAEDTAVYYCARSLARTTAMDYWGEGTLVTVSSASTKGPSVFPLAPSSKSTSGGTAALGCLVKDYFPEPVTVSWNSGALTSGVHTFPAVLQSSGLYSLSSVVTVPSSSLGTQTYICNVNHKPSNTKVDKKVEPKSCDKTHTCPPCPAPDLLGDDSVFLFPPKPKDTLMISRTPEVTCVVVDVSEEDGEVKFNWYVDGVEVHNAKTKPREEQYNSTYRVVSVLTVLHQDWLNGKEYKCKVSNKALPAPIEKTISKAKGQPREPQVYTLPPSRDELTKNQVSLTCLVKGFYPSDIAVEWESNGQPENNYKTTPPVLDSDGSFFLYSKLTVDKSRWQQGNVFSCSVMHEALHNHYTQESLSLSP
chain 2: not shown
Kd (human FcγRIa [5]): 0.004 µM

B5: BP384 (antibody)
chain 1: QVQLQESGPGLVKPSETLSLTCAVSGHSISHDHAWSWVRQPPGEGLEWIGFISYSGITNYNPSLQGRVTISRDNSKNTLYLQMNSLRAEDTAVYYCARSLARTTAMDYWGEGTLVTVSSASTKGPSVFPLAPSSKSTSGGTAALGCLVKDYFPEPVTVSWNSGALTSGVHTFPAVLQSSGLYSLSSVVTVPSSSLGTQTYICNVNHKPSNTKVDKKVEPKSCDKTHTCPPCPAPDLLGDDSVFLFPPKPKDTLMISRTPEVTCVVVDVSDEDGEVKFNWYVDGVEVHNAKTKPREEQDNSTYRVVSVLTVLHQDWLNGKEYKCKVSNKALPRPIERTISKAKGQPREPQVYTLPPSRDELTKNQVSLTCLVKGFYPSDIAVEWESNGQPENNYKTTPPVLDSDGSFFLYSKLTVDKSRWQQGNVFSCSVMHEALHNHYTQESLSLSP
chain 2: not shown
Kd (human FcγRIa [6]): 0.003 µM

B6: 278-IgG1 (clone 278) (antibody, V domains shown)
VH: QSLEESGGRLVTPGTPLTLTCTASGFSLSSYHMSWVRQAPGKGLEWIGVINSAGNTYYASWAKGRFTVSKTSTTVDLNLTSLTTEDTATYFCARYVFSSGSHDIWGPGTLVTVSS
VL: AYDMTQTPASVEVAVGGTVTIKCQASQSIGSWLAWYQQKPGQPPKELIYGTSTLESGVPSRFIGSGSGTEFTLTISGVECADAATYYCQQGYSEDNIDNAFGGGTEVVVKR
Kd (human IgE [7]): 3.9 µM
Kd (human IgE [8]): 2 µM
Kd (human IgE [9]): 0.0024 µM

Next, values leading:

Kd (human IgA [1]): 5 µM
Kd (human IgA [2]): 6.7 µM
Kd (human IgA [3]): 4 µM
Kd (human IgA [4]): 0.039 µM
B1: GA2-IgG1 (antibody, V domains shown)
VH: QVQLVQSGAEVKKPGSSVKVSCKASGGTFSSYAISWVRQAPGQGLEWMGGIIPIFGTANYAQKFQGRVTITADESTSTAYMELSSLRSEDTAVYYCARPRWETAISSDAFDIWGQGTMVTVSS
VL: DIQMTQSPSSLSASVGDRVTITCRASQSISDDLNWYQQKPGKAPKLLIYEASNLQSGVPSRFSGSGSGTDFTLTISSLQPEDFATYYCQQHSSSPLTFGQGTKVEIKR

Kd (human FcγRIIa type H): 1.6 µM
B2: BP438 (antibody)
chain 1: QVQLQESGPGLVKPSETLSLTCAVSGHSISHDHAWSWVRQPPGEGLEWIGFISYSGITNYNPSLQGRVTISRDNSKNTLYLQMNSLRAEDTAVYYCARSLARTTAMDYWGEGTLVTVSSASTKGPSVFPLAPSSKSTSGGTAALGCLVKDYFPEPVTVSWNSGALTSGVHTFPAVLQSSGLYSLSSVVTVPSSSLGTQTYICNVNHKPSNTKVDKKVEPKSCDKTHTCPPCPAPDLLGDDSVFLFPPKPKDTLMISRTPEVTCVVVDVAEEDGEVKFNWYVDGVEVHNAKTKPREEQYNSTYRVVSVLTVLHQDWLNGKEYKCKVSNKALPRPTEKTISKAKGQPREPQVYTLPPSRDELTKNQVSLTCLVKGFYPSDIAVEWESNGQPENNYKTTPPVLDSDGSFFLYSKLTVDKSRWQQGNVFSCSVMHEALHNHYTQESLSLSP
chain 2: not shown

Kd (human FcγRIIb): 0.04 µM
B3: BP468 (antibody)
chain 1: QVQLQESGPGLVKPSETLSLTCAVSGHSISHDHAWSWVRQPPGEGLEWIGFISYSGITNYNPSLQGRVTISRDNSKNTLYLQMNSLRAEDTAVYYCARSLARTTAMDYWGEGTLVTVSSASTKGPSVFPLAPSSKSTSGGTAALGCLVKDYFPEPVTVSWNSGALTSGVHTFPAVLQSSGLYSLSSVVTVPSSSLGTQTYICNVNHKPSNTKVDKKVEPKSCDKTHTCPPCPAPDLLGDDSVFLFPPKPKDTLMISRTPEVTCVVVDVSDEDGEVKFNWYVDGVEVHNAKTKPREEQDNSTYRVVSVLTVLHQDWLNGKEYKCKVSNKALPRPIETTISKAKGQPREPQVYTLPPSRDELTKNQVSLTCLVKGFYPSDIAVEWESNGQPENNYKTTPPVLDSDGSFFLYSKLTVDKSRWQQGNVFSCSVMHEALHNHYTQESLSLSP
chain 2: not shown
